{"source": "patent US5663067", "key": {"[1]": {"tested_on": "T1, SapI restriction endonuclease (recombinant) (Saccharopolyspora sp.)", "T1 sequence": "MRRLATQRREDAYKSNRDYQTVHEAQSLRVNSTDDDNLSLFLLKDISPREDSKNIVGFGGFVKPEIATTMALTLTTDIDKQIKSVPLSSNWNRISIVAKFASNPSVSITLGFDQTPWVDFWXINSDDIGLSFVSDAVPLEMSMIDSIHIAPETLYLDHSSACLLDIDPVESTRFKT", "test": "cleavage_in_vitro", "settings": "supernatant of lysate assayed on lambda DNA; purified enzyme also assayed on lambda DNA"}, "[2]": {"tested_on": "T2, SapI M1 methylase (Saccharopolyspora sp.)", "T2 sequence": "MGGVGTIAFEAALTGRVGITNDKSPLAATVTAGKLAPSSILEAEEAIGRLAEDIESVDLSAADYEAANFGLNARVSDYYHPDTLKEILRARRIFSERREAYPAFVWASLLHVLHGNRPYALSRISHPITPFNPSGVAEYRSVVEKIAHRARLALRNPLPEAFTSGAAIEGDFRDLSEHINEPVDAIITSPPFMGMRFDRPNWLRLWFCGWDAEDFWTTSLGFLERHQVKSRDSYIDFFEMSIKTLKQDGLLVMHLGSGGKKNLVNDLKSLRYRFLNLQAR", "test": "cell_activity", "settings": "M1 and M2 co-expressed in E. coli from pACYC184-SapIM1-M2; SapI site protection"}, "[3]": {"tested_on": "T3, SapI M2 methylase (Saccharopolyspora sp.)", "T3 sequence": "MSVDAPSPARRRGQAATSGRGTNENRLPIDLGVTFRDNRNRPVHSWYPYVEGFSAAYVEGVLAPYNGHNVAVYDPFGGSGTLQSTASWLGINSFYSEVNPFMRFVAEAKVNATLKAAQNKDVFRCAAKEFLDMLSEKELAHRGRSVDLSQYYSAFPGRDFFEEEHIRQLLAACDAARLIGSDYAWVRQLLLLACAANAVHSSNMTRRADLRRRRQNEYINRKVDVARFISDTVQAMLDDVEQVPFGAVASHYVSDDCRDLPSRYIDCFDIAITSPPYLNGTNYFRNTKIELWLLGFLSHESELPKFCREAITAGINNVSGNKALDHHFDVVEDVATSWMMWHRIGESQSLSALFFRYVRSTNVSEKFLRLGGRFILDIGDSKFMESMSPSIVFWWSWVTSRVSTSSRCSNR", "test": "cell_activity", "settings": "M1 and M2 co-expressed in E. coli from pACYC184-SapIM1-M2; SapI site protection"}}}
{"substance": "lambda DNA", "values": [{"measurement": "activity (units per g wet cells)", "setting": "[1]", "value": 20000}]}
{"substance": "pUC19 plasmid DNA (one SapI site)", "values": [{"measurement": "activity (% of DNA resistant to SapI)", "setting": "[2]", "value": 70}, {"measurement": "activity (% of DNA resistant to SapI)", "setting": "[3]", "value": 70}]}
